Source: patent US20260116958A1 (University of California, published 2026)
Substitutions are numbered along the chain they refer to. Like-named read-outs stand apart in the source and are kept apart here.

Experiments:
[1] = biological target: inactive BoNT/G (BoNT/Gi) (Clostridium botulinum) (UniProt Q60393); assay: flow cytometry, scFv on yeast
[2] = biological target: inactive BoNT/G (BoNT/Gi) (Clostridium botulinum) (UniProt Q60393); assay: flow cytometry, scFv on yeast; remark: listed apart in the source
[3] = biological target: inactive BoNT/G (BoNT/Gi) (Clostridium botulinum) (UniProt Q60393); assay: flow cytometry, scFv on yeast surface
[4] = biological target: inactive BoNT/G (BoNT/Gi) (Clostridium botulinum) (UniProt Q60393); assay: FACS, scFv on yeast
[5] = biological target: inactive BoNT/G (BoNT/Gi) (Clostridium botulinum) (UniProt Q60393); assay: scFv on yeast surface
[6] = biological target: inactive BoNT/G (BoNT/Gi) (Clostridium botulinum) (UniProt Q60393); assay: flow cytometry, scFv on yeast; against hu6G6 Wt
[7] = biological target: inactive BoNT/G (BoNT/Gi) (Clostridium botulinum) (UniProt Q60393); assay: scFv on yeast
active BoNT/G holotoxin [8] = biological target: T1, active BoNT/G holotoxin (Clostridium botulinum, UniProt Q60393 2-1297); assay: KinExA, IgG
T1 sequence: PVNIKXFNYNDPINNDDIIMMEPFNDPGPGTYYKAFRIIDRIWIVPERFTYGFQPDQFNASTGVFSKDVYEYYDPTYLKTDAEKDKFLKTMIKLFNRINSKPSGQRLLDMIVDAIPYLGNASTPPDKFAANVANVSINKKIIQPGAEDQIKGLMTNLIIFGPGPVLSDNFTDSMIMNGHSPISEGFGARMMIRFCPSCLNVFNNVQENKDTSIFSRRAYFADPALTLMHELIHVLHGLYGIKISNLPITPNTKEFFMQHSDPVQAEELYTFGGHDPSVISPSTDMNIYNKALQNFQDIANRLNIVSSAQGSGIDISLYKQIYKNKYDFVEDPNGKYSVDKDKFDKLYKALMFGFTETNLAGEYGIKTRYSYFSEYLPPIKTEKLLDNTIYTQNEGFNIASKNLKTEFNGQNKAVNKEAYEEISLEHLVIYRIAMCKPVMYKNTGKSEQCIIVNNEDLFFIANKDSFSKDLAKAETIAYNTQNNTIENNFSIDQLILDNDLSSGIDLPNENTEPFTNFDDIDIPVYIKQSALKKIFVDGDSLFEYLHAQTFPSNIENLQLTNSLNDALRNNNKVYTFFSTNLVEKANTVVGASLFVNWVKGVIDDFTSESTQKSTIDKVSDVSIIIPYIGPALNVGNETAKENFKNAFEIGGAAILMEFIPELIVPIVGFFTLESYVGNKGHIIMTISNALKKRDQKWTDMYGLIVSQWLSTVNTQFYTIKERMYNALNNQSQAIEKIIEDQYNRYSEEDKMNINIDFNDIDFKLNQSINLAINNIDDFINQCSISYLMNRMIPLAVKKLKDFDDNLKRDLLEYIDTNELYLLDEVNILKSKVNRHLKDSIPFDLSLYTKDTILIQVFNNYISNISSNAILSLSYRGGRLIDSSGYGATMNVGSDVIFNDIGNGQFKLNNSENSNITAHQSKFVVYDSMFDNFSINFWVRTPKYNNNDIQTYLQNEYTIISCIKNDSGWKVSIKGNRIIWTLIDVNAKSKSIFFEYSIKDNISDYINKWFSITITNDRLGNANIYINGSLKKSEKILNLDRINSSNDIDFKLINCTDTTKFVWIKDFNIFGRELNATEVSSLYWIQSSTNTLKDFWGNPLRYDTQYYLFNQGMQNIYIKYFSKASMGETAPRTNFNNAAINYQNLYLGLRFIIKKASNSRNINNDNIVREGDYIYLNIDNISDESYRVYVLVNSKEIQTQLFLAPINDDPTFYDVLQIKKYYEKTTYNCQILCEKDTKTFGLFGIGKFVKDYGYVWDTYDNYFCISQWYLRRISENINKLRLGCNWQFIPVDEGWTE

active BoNT/G holotoxin [9] = biological target: T1, active BoNT/G holotoxin; assay: KinExA, IgG; remark: listed apart in the source
[10] = biological target: T2, inactive BoNT/G (BoNT/Gi) (Clostridium botulinum, UniProt Q60393 1-1297); assay: titration on yeast-displayed scFv, flow cytometry, fit y = m1 + m2*M0/(m0+m3)
T2 sequence: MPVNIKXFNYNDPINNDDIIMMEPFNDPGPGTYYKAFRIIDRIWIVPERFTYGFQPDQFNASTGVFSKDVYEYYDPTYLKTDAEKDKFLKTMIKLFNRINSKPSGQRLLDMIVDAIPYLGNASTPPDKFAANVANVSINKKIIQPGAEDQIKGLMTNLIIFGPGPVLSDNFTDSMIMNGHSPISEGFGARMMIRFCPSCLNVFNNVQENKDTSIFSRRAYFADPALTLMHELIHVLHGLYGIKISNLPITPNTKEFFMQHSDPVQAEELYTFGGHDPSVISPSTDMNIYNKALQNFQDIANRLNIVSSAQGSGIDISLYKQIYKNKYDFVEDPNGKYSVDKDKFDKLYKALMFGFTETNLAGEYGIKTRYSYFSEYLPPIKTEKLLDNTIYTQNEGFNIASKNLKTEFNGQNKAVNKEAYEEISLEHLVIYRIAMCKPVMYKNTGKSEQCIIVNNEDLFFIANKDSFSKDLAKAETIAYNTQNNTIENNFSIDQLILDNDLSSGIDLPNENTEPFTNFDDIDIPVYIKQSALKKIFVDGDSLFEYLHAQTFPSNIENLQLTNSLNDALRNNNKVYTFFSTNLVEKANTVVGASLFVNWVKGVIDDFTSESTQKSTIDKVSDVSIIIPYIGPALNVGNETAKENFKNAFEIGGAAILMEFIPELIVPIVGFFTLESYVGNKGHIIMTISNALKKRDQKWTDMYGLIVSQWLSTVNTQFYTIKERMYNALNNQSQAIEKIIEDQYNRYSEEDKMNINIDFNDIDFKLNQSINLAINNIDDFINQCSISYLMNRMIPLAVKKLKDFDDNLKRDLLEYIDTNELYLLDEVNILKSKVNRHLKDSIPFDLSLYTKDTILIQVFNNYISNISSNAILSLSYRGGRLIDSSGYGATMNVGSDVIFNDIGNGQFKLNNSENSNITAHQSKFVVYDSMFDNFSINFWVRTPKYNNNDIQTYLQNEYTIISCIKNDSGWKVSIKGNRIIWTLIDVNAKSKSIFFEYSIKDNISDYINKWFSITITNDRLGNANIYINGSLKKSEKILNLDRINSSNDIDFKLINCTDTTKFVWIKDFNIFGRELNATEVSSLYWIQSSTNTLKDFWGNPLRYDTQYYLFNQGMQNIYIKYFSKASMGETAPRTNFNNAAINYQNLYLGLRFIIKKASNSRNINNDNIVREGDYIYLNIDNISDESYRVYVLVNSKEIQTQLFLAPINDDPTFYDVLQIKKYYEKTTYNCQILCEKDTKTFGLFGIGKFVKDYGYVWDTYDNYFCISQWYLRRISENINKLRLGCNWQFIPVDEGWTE

[11] = biological target: T2, inactive BoNT/G (BoNT/Gi); assay: as above; remark: listed apart in the source
[12] = biological target: T2, inactive BoNT/G (BoNT/Gi); assay: FACS, scFv on yeast
[13] = biological target: T2, inactive BoNT/G (BoNT/Gi); assay: scFv on yeast surface
[14] = biological target: T2, inactive BoNT/G (BoNT/Gi); assay: scFv on yeast

B1: hu6G9 scFv (scFv)
scFv: QVQLVQSGAEVKKPGASVKMSCKASGYTFTSYWMHWVRQAPGQGLEWIGYINPSTGYTEYNQKFKDRATLTADKSTSTAYMELRSLRSDDTAVYYCARGGNYVDYWGQGTTLTVSSVDLKSGGSTSGSGKPGSGEGSSGSARDIQMTQSPSTLSASVGERVTITCRASQGISSWLAWYQQKPGKAPKRLIYAVSTLQTGVPSRFSGSGSGTDLTLTINSLQPEDFATYYCQHLNSYPLTFGGGTKVEIK
[1]
  Kd: 3.78 nM
[2]
  Kd: 18.8 nM
[3]
  Kd: 18.8 nM

B2: Hu6G9.1 scFv (scFv)
scFv: B1 scFv with I48V, Q169H, G206D, H232D, T239S
[2]
  fold improvement in affinity over hu6G9 WT: 9 fold
[4]
  Kd: 2.04 nM
[3]
  fold improvement over wild type hu6G9: 9 fold

B3: hu6G6.1 scFv (scFv)
scFv: QVQLVQSGAEVKKPGASVKLSCKASGFNIKDTYMHWVRQAPGQGLEWIGRIDPENGNTKYDPKFQGRATITAYKSINTAYLELSRLRSDDTAVYYCASGPNYYGTTWFAYWGQGTTVTVSSVDLKSGGSTSGSGKPGSGEGSSGSAREIVLTQSPSTLSASVGDRVTITCRASHGISNYLAWYQQKPGRAPKLLIYKASTLHIGVPSRFSGSGSGTEFALTISSLQPDDFSTYYCQQYNSYLPHTFGQGTRLEIK
[5]
  Kd: 1.15 nM
[6]
  Improvement over WT: 5.5 fold
[2]
  Kd: 4.27 nM
[4]
  Kd: 3.4 nM

B4: Hu6G6.2 scFv (scFv)
scFv: B3 scFv with T78R
[7]
  Kd: 0.22 nM
[4]
  Kd: 0.22 nM

B5: hu6G6.1 IgG (antibody, V domains shown)
VH: QVQLVQSGAEVKKPGASVKLSCKASGFNIKDTYMHWVRQAPGQGLEWIGRIDPENGNTKYDPKFQGRATITAYKSINTAYLELSRLRSDDTAVYYCASGPNYYGTTWFAYWGQGTTVTVSS
VL: EIVLTQSPSTLSASVGDRVTITCRASHGISNYLAWYQQKPGRAPKLLIYKASTLHIGVPSRFSGSGSGTEFALTISSLQPDDFSTYYCQQYNSYLPHTFGQGTRLEIKR
Active BoNT/G holotoxin [8]
  Kd: 0.47 nM
Active BoNT/G holotoxin [9]
  Kd: 0.476 nM
  fold improvement over hu6G6: 18 fold

B6: Hu6G10 IgG (antibody, V domains shown)
VH: QVQLVQSGAEVKKPGATVKISCKASGYSFTGYFMHWVRQAPGKGLEWIGRINPYNGDIIYNQNFKDRATLTVDKSTSTAYMELSSLRSEDTAVYYCASLFGLYYFDYWGQGTTLTVSS
VL: DVVMTQSPSSVSASVGDRVTITCRASQRISNHLNWYQQKPGKAPKRLIYAASSLESGVPSRFSGSGSGTEFTLTISSLQPEDFATYFCLQHNSYPYTFGQGTKVEIKR
Active BoNT/G holotoxin [8]
  Kd: 0.00836 nM
Active BoNT/G holotoxin [9]
  fold improvement over 6G10 (IgG KD): 39 fold

B7: Hu6G7.2 scFv (scFv, V domains shown)
VH: QVQLVQSGAEVKKPGASVKVSCKASDYSFTDYNIYWVRQTPGQGLEWIGYIDPYNGGTSYNQKFKGRATLTVDKSISTAYMELSRLRSDDTAVYYCALYGYDPDYTEYWGQGTTLTVSS
VL: DIVLTQSPASMAVSPGQRVTITCSASSSVSYLHWFQQKPGQSPKLWIYSTSNLASGVPARFSGSGSGTDYTLTINPMEAEDTATYYCQQRSSYPYTFGQGTKLEIKR
[10]
  Kd: 3.93 nM
[11]
  Kd: 1.42 nM
[12]
  Kd: 1.42 nM

B8: Hu6G7.1 scFv (scFv, V domains shown)
VH: B7 VH with T106I, E107D
VL: B7 VL
[11]
  Kd: 3.2 nM
[12]
  Kd: 3.2 nM

B9: 6G6 scFv (scFv, V domains shown)
VH: EVQLQQSGAELVKPGASVKLSCTASGFNIKDTYMHWVKQRPEQGLEWIGRIDPANGNTKYDPKFQGKATITADTSSNTAYLQLSSLTSEDTAVYYCASGPNYYGTTWFAYWGQGTTVTVSS
VL: QIVLTQSPAILSASPGEKVTMTCRASSSVSYMHWYQQKPGSSPRLWIYRTSNLASGVPARFSGSGSGTSYSLTISSMEAEDAATYYCQQYHSYPRTFGGGTKLEIKR
[13]
  Kd: 17.7 nM

B10: hu6G11 scFv (scFv, V domains shown)
VH: QVQLVQSGAEVAKPGASVKMSCKASGYTFTSYWMHWVRQAPGQGLEWIGYINPSTGYTEYNQKFKDRATLTADKSTSTAYMELSSLRSEDTAVYYCARGYFSFAYWGQGTLVTVSS
VL: DIVMTQSPSSLSASVRDRVTITCQASHDIKNFLNWFQQKPGKAPKLLVYDASNLQVGVPSRFSASGYGTEFTLTISSLQPEDFATYYCQQANSFPRTFGQGTKVEIKR
[12]
  Kd: 4.5 nM
[14]
  Kd: 4.57 nM
  fold improvement in BoNT/Gi binding: 25 fold
